According to paper PMC8744954:

Key:
[1] = biological target: Jun (Homo sapiens) (UniProt P05412); details: cited from earlier work
[2] = biological target: p53 proteins tested (wild type p53 and 46 common clinical mutants); assay: SPR; NAPPA-SPRi: p53 proteins with GST-E-coil translated in situ and captured by K-coil peptide on a gold slide; purified full-length MDM2 20 μg/mL injected at 3 μL/s; running buffer 1x PBS, 1% Tween 20; 1:1 fit with Scrubber 2.0; apparent constants

UniProt P05412, sequence (P05412 whole entry): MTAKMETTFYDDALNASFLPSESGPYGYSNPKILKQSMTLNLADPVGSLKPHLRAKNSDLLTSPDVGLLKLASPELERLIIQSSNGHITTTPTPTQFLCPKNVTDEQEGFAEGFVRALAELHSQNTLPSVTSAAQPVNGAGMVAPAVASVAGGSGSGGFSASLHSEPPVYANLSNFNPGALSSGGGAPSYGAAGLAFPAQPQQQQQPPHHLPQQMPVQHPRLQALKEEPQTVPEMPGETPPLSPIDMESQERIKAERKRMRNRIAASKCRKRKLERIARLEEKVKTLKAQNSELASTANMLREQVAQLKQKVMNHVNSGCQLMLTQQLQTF

Kd [2] [nM] | median KD [2] [nM] | Substance | Kd [1] [nM]
– | – | Fos (from UniProt P01100) | 1
2.85 to 1350 | 105 | MDM2, full-length purified recombinant (from UniProt Q00987 1-491) (natural protein) | –
